Experimental data from patent US20260274955A1 (JANUX THERAPEUTICS, published 2026).

target: Anti-CD28 Fab (SEQ ID NOs: 202, 203); assay: phage binding ELISA on captured Fab, competitor CD28 antigen;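 also: clonal phage supernatant binding in wells preincubated with CD28 antigen in blocking buffer, detected by HRP-conjugated anti-M13 antibody ELISA, compared with blocking buffer alone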
Target sequence in this assay (VH, as listed by the source, chain 1 of 2): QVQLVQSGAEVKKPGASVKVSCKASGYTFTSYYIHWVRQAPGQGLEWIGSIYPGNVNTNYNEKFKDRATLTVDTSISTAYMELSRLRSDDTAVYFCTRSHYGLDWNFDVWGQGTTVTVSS
Target sequence in this assay (VL, as listed by the source, chain 2 of 2): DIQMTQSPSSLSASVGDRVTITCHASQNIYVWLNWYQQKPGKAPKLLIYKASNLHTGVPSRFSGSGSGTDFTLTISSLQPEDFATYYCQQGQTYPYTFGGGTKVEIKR
Procedure: (§1) Clonal phage were harvested as crude supernatants and screened via standard ELISAs. […] Prior to the addition of clonal phage, wells were incubated with blocking buffer and CD28 antigen or blocking buffer alone. Without washing or aspirating, clonal phage supernatants were then added to the wells and incubated for a short time. Wells were then washed followed by detection of bound phage using a horse radish conjugated anti-M13 antibody.

Compared with YCDGHAPEFIRKCL [Phage-754], YCEGHSSAYMRKCL [Phage-758] is lower in “Anti-CD28 Fab signal in the presence of CD28” value (shortened to “Anti-CD28 Fab signal … of CD28”): 0.07 for the first, 0.06 for the second.

First: YCEGHAPQYMSKCL [Phage-755]
Second: YCEGHSSEYLGKCL [Phage-750]
The “Anti-CD28 Fab signal … of CD28” value of the first is lower: 0.08 for the first, 0.09 for the second.

YCEGHLPSYLAKCL [Phage-753] and YCEGHSVEYILKCL [Phage-757] are the same in “Anti-CD28 Fab signal … of CD28” value: 0.06 for the first, 0.06 for the second.

First: YCDGHDARYMTKCL [Phage-756]
Second: YCDGHLPRYMEKCM [Phage-751]
The “Anti-CD28 Fab signal … of CD28” value of the first is higher: 0.09 for the first, 0.06 for the second.

With YCDGHSSAYIDKCL [Phage-752] the “Anti-CD28 Fab signal … of CD28” value was 0.06.

target: T1, Anti-CD28 Fab (SEQ ID NOs: 202, 203); assay: phage ELISA on captured Fab, wells pre-incubated with CD28 antigen (competitor: CD28);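 also: bound clonal phage detected with an HRP-linked anti-M13 antibody, compared against wells that received blocking buffer alone without CD28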
T1 construct: biotinylated and captured on neutravidin coated plates in the phage ELISA
T1 sequence (VH, as listed by the source, chain 1 of 2): as the sequence (VH, as listed by the source, chain 1 of 2) above
T1 sequence (VL, as listed by the source, chain 2 of 2): as the sequence (VL, as listed by the source, chain 2 of 2) above
Procedure: as §1

First: YCDGHLWEYMDKCL [Phage-269]
Second: YCEGHLAEYMDKCL [Phage-272]
The “Anti-CD28 Fab signal … of CD28” value of the first is lower: 0.06 for the first, 0.07 for the second.

YCDGHVGEYMQKCL [Phage-233] and YCDGHSAEYLAKCL [Phage-293] are the same in “Anti-CD28 Fab signal … of CD28” value: 0.08 for the first, 0.08 for the second.

Going from YCEGHAPEYMYKCL [Phage-235] to YCDGHLIEYMEKCL [Phage-238], the “Anti-CD28 Fab signal … of CD28” value falls from 0.07 to 0.06.

First: YCDGHLNEYMEKCL [Phage-298]
Second: YCEGHAAEYMMKCL [Phage-263]
The “Anti-CD28 Fab signal … of CD28” value of the first is lower: 0.06 for the first, 0.07 for the second.

First: YCDGHFREYMQKCL [Phage-242]
Second: YCDGHLPEYQMKCL [Phage-236]
The “Anti-CD28 Fab signal … of CD28” value of the first is lower: 0.06 for the first, 0.08 for the second.

YCAGHSPEFMEKCL [Phage-297] and YCAGHIEEYMWKCL [Phage-230] are the same in “Anti-CD28 Fab signal … of CD28” value: 0.06 for the first, 0.06 for the second.

Compared with YCDGHLPIYMTQCL [Phage-271], YCEGHADIYMQKCL [Phage-225] is lower in “Anti-CD28 Fab signal … of CD28” value: 0.08 for the first, 0.07 for the second.

Going from YCDGHSAQYMHKCL [Phage-234] to YCDGHSDQYMWKCL [Phage-261], the “Anti-CD28 Fab signal … of CD28” value rises from 0.06 to 0.11.

YCEGHAPEYMMKCI [Phage-224] and YCEGHAIQYMSKCL [Phage-239] are the same in “Anti-CD28 Fab signal … of CD28” value: 0.06 for the first, 0.06 for the second.

First: YCDGHAPEYVMKCL [Phage-232]
Second: YCEGHRAEYMEKCL [Phage-288]
The “Anti-CD28 Fab signal … of CD28” value of the first is higher: 0.1 for the first, 0.06 for the second.

Going from YCEGHLSQYMQKCL [Phage-259] to YCEGHLPMYFLKCM [Phage-270], the “Anti-CD28 Fab signal … of CD28” value falls from 0.09 to 0.06.

Going from YCDGHAIEYMQKCL [Phage-229] to YCDGHLPQYMSKCL [Phage-262], the “Anti-CD28 Fab signal … of CD28” value rises from 0.07 to 0.1.

YCDGHMPQYMSKCL [Phage-266] and YCEGHLPIYMDKCL [Phage-228] are the same in “Anti-CD28 Fab signal … of CD28” value: 0.08 for the first, 0.08 for the second.

First: YCAGHLPMYMHKCL [Phage-264]
Second: YCEGHAPQHMDKCL [Phage-240]
The “Anti-CD28 Fab signal … of CD28” value of the first is higher: 0.18 for the first, 0.08 for the second.

First: YCMGHQPEYMQKCL [Phage-291]
Second: YCQGHMPEYMDKCL [Phage-231]
The “Anti-CD28 Fab signal … of CD28” value of the first is higher: 0.08 for the first, 0.07 for the second.

target: T1, Anti-CD28 Fab (SEQ ID NOs: 202, 203); assay: phage ELISA on captured biotinylated Fab;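 also: wells preblocked with or without CD28 antigen, then clonal phage supernatant added briefly, washed, and bound phage read out by ELISA using HRP-linked anti-M13 antibody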
Procedure: as §1

Compared with YCDGHLWEYMDKCL [Phage-269], YCEGHLAEYMDKCL [Phage-272] is lower in “Anti-CD28 Fab signal” value: 1.97 for the first, 1.96 for the second.

Going from YCDGHVGEYMQKCL [Phage-233] to YCDGHSAEYLAKCL [Phage-293], the “Anti-CD28 Fab signal” value falls from 2.05 to 1.93.

Going from YCEGHAPEYMYKCL [Phage-235] to YCDGHLIEYMEKCL [Phage-238], the “Anti-CD28 Fab signal” value falls from 2.05 to 2.04.

First: YCDGHLNEYMEKCL [Phage-298]
Second: YCEGHAAEYMMKCL [Phage-263]
The “Anti-CD28 Fab signal” value of the first is lower: 1.91 for the first, 1.99 for the second.

Compared with YCDGHFREYMQKCL [Phage-242], YCDGHLPEYQMKCL [Phage-236] is higher in “Anti-CD28 Fab signal” value: 2.04 for the first, 2.05 for the second.

Going from YCAGHSPEFMEKCL [Phage-297] to YCAGHIEEYMWKCL [Phage-230], the “Anti-CD28 Fab signal” value rises from 1.91 to 2.05.

First: YCDGHLPIYMTQCL [Phage-271]
Second: YCEGHADIYMQKCL [Phage-225]
The “Anti-CD28 Fab signal” value of the first is lower: 1.97 for the first, 2.06 for the second.

First: YCDGHSAQYMHKCL [Phage-234]
Second: YCDGHSDQYMWKCL [Phage-261]
The “Anti-CD28 Fab signal” value of the first is higher: 2.05 for the first, 2 for the second.

Compared with YCEGHAPEYMMKCI [Phage-224], YCEGHAIQYMSKCL [Phage-239] is lower in “Anti-CD28 Fab signal” value: 2.06 for the first, 2.04 for the second.

Going from YCDGHAPEYVMKCL [Phage-232] to YCEGHRAEYMEKCL [Phage-288], the “Anti-CD28 Fab signal” value falls from 2.05 to 1.93.

Going from YCEGHLSQYMQKCL [Phage-259] to YCEGHLPMYFLKCM [Phage-270], the “Anti-CD28 Fab signal” value falls from 2 to 1.97.

Compared with YCDGHAIEYMQKCL [Phage-229], YCDGHLPQYMSKCL [Phage-262] is lower in “Anti-CD28 Fab signal” value: 2.05 for the first, 2 for the second.

Going from YCDGHMPQYMSKCL [Phage-266] to YCEGHLPIYMDKCL [Phage-228], the “Anti-CD28 Fab signal” value rises from 1.98 to 2.06.

Compared with YCAGHLPMYMHKCL [Phage-264], YCEGHAPQHMDKCL [Phage-240] is higher in “Anti-CD28 Fab signal” value: 1.99 for the first, 2.04 for the second.

Compared with YCMGHQPEYMQKCL [Phage-291], YCQGHMPEYMDKCL [Phage-231] is higher in “Anti-CD28 Fab signal” value: 1.93 for the first, 2.05 for the second.

target: Anti-CD28 Fab (SEQ ID NOs: 202, 203); assay: phage binding ELISA on captured Fab;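 also: clonal phage supernatants added briefly to wells pre-incubated with CD28 antigen or with blocking buffer only, then washed, bound phage read by ELISA using HRP-coupled anti-M13 antibody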
Target sequence in this assay (VH, as listed by the source, chain 1 of 2): as the sequence (VH, as listed by the source, chain 1 of 2) above
Target sequence in this assay (VL, as listed by the source, chain 2 of 2): as the sequence (VL, as listed by the source, chain 2 of 2) above
Procedure: as §1

Compared with YCDGHAPEFIRKCL [Phage-754], YCEGHSSAYMRKCL [Phage-758] is lower in “Anti-CD28 Fab (SEQ ID NOs: 202, 203) signal” value: 1.05 for the first, 1.04 for the second.

Compared with YCEGHAPQYMSKCL [Phage-755], YCEGHSSEYLGKCL [Phage-750] is higher in “Anti-CD28 Fab (SEQ ID NOs: 202, 203) signal” value: 1.04 for the first, 1.05 for the second.

Going from YCEGHLPSYLAKCL [Phage-753] to YCEGHSVEYILKCL [Phage-757], the “Anti-CD28 Fab (SEQ ID NOs: 202, 203) signal” value falls from 1.05 to 1.04.

Going from YCDGHDARYMTKCL [Phage-756] to YCDGHLPRYMEKCM [Phage-751], the “Anti-CD28 Fab (SEQ ID NOs: 202, 203) signal” value rises from 1.04 to 1.05.

For YCDGHSSAYIDKCL [Phage-752], the “Anti-CD28 Fab (SEQ ID NOs: 202, 203) signal” value was 1.05.
